What was measured:
purified Na+/K+-ATPase = molecular target: T1, purified Na+/K+-ATPase (Sus scrofa, UniProt P05024); assay: In vitro GST pulldown binding assay with purified Na+/K+-ATPase; set-up: species or system pig; conditions: 2 μg purified Na+/K+-ATPase per assay
T1 construct: Na+/K+-ATPase was purified from pig kidney outer medulla using the Jorgensen method; from tissue; host or cells: pig kidney outer medulla
Experimental: The purified Na+/K+-ATPase was solubilized in 1% Triton X-100 PBS and centrifuged at 100,000×g for 30 min. The supernatant was collected for the binding assay. GST-fusion proteins (5 μg) were conjugated on glutathione beads and incubated with the solubilized Na+/K+-ATPase in 500 μl PBS in the presence of 0.5% Triton X-100 at room temperature for 30 min. The beads were washed with the same buffer for four times. The bound Na+/K+ATPase was resolved on 10% SDS-PAGE and detected by Western blot. Reciprocal binding assay using GST-Na+/K+-ATPase constructs (5 μg) and purified Src lacking of first 85 amino acids (200 ng) or His-tagged Src constructs (100 ng) was done similarly. To test if native Na+/K+-ATPase binds Src, the above experiments were repeated in the absence of Triton X-100. To make the Na+/K+-ATPase/Src complex, 2-5 μg of the purified Na+/K+ATPase was incubated with 4.5 U of Src (˜10 ng) in PBS in the absence of Triton X-100 at room temperature for 30 min. The complex was either used for the experiments directly as indicated or collected by centrifugation at 100,000×g for 30 min.

[1] = molecular target: T2, Na+/K+-ATPase/Src complex (Sus scrofa, UniProt P05024); assay: Src pY418 phosphorylation of the Na+/K+-ATPase/Src complex (Western blot); format: biochemical; conditions: 5 μg GST fusion preincubated with 2 μg Na+/K+-ATPase before adding Src (4.5 U)
T2 construct: Na+/K+-ATPase was purified from pig kidney outer medulla using the Jorgensen method; tissue Upstate Biotechnology (Src only); host or cells: pig kidney outer medulla (Na+/K+-ATPase)
Experimental: The Src kinase activity was assayed using a commercial kit (Haas et al., 2000). To determine how Na+/K+-ATPase affects Src kinase activity, the purified Src (4.5 U) was incubated with 5 μg of the purified Na+/K+-ATPase in the Src assay buffer for 30 min at room temperature. Afterward, both control Src or the Na+/K+-ATPase-bound Src were exposed to 10 μM ouabain and Src kinase activity was determined. In other experiments, the Src pY418 was measured by anti-pY418 antibody to indicate Src activation (Ma et al., 2000). To do so, the purified Src (4.5 U) was incubated with different amounts of the purified Na+/K+-ATPase or GST-Na+/K+ATPase constructs in phosphate-buffered saline (PBS) for 30 min at 37° C. Afterward, 2 mM ATP/Mg2+ was added. The reaction continued for 5 min at 37° C. and was stopped by addition of SDS sample buffer.
The purified Na+/K+-ATPase was solubilized in 1% Triton X-100 PBS and centrifuged at 100,000×g for 30 min. The supernatant was collected for the binding assay. GST-fusion proteins (5 μg) were conjugated on glutathione beads and incubated with the solubilized Na+/K+-ATPase in 500 μl PBS in the presence of 0.5% Triton X-100 at room temperature for 30 min. The beads were washed with the same buffer for four times. The bound Na+/K+ATPase was resolved on 10% SDS-PAGE and detected by Western blot. […]

Src = molecular target: T3, Src (Sus scrofa, UniProt K7GM45); assay: GST-CD3 pulldown of Src from LLC-PK1 cell lysates; format: binding, pig; conditions: 1 mg LLC-PK1 cell lysates
T3 construct: endogenous in cells; host or cells: LLC-PK1 (pig kidney)
Experimental: FIG. 4C. A Western blot showing that Src was pulled down by GST-CD3 of Na+/K+-ATPase (Na/K) and H+/K+-ATPase (H/K), but not SERCA from 1 mg LLC-PK1 cell lysates.
Cells were lysed in RIPA buffer containing 1% Nonidet P40, 0.25% sodium deoxycholate, 150 mM NaCl, 1 mM EDTA, 1 mM phenylmethylsulfonyl fluoride, 1 mM sodium orthovanadate, 1 mM NaF, 10 μg/ml aprotinin, 10 μg/mlleupeptin, and 50 mM Tris-HCl (pH 7.4). Cell lysates were cleared by centrifugation at 16,000×g for […], and the supernatants (1 mg) were either immunoprecipitated with anti-α1 antibody or incubated with different GST-fusion proteins. The complexes were then pulled down by either protein G agarose or glutathione beads (Ma et al., 2000; Haas et al., 2002) and analyzed by Western blot.

B1: GST-kinase: GST fusion of Src kinase domain (protein)
chain: QTQGLAKDAWEIPRESLRLEVKLGQGCFGEVWMGTWNGTTRVAIKTLKPGTMSPEAFLQEAQVMKKLRHEKLVQLYAVVSEEPIYIVTEYMSKGSLLDFLKGEMGKYLRLPQLVDMAAQIASGMAYVERMNYVHRDLRAANILVGENLVCKVADFGLARLIEDNEYTARQGAKFPIKWTAPEAALYGRFTIKSDVWSFGILLTELTTKGRVPYPGMVNREVLDQVERGYRMPCPPECPESLHDLMCQCWRKDPEERPTFEYLQAFLEDYFTSTEPQYQPGENL
modifications: left off: a dimerising Fc or GST
notes: GST fusion of Src kinase domain
Purified Na+/K+-ATPase
  binding to the Na+/K+-ATPase: Binding
[1]
  Src pY418 in presence of Na+/K+-ATPase: significantly increased Src pY418

B2: GST-SH2: GST fusion of Src SH2 domain (protein)
chain: WYFGKITRRESERLLLNPENPRGTFLVRESETTKGAYCLSVSDFDNAKGLNVKHYKIRKLDSGGFYITSRTQFSSLQQLVAYYSKHADGLCHRLTNVC
modifications: left off: a dimerising Fc or GST
notes: GST fusion of Src SH2 domain
Purified Na+/K+-ATPase
  binding to the Na+/K+-ATPase: Binding

B3: GST-SERCA-CD3: GST fusion of the CD3 from rat heart SERCA 2a (protein)
chain: GTRRMAKKNAIVRSLPSVETLGCTSVICSDKTGTLTTNQMSVCRMFILDKVEGDTCSLNEFTITGSTYAPIGEVQKDDKPVKCHQYDGLVELATICALCNDSALDYNEAKGVYEKVGEATETALTCLVEKMNVFDTELKGLSKIERANACNSVIKQLMKKEFTLEFSRDRKSMSVYCTPNKPSRTSMSKMFVKGAPEGVIDRCTHIRVGSTKVPMTPGVKQKIMSVIREWGSGSDTLRCLALATHDNPLRREEMHLEDSANFIKYETNLTFVGCVGMLDPPRIEVASSVKLCRQAGIRVIMITGDNKGTAVAICRRIGIFGQDEDVTSKAFTGREFDELSPSAQRDACLNARCFARVEPSHKSKIVEFLQSFDEITAMTGDGVNDAPALKKSEIGIAMGSGTAVAKTASEMVLADDNFSTIVAAVEEGRAIYNNMKQFIRYLISSNV
Src
  pulldown of Src from LLC-PK1 cell lysates: not
